We go through two molecules from PMC10926838, “Self-driving laboratories to autonomously navigate the protein fitness landscape” (Nature chemical engineering, 2024).

One series has as its system T1, 6151.
T1 construct: gene P6F0-P1F1-P5F2-P1F3; pET-22b, Ni-NTA purified
Description: fluorescence of released 4-methylumbelliferone, Michaelis-Menten fit. Type of series: biochemical, Streptomyces sp. The settings on record: 10 nM enzyme, 0.5% DMSO, 10 mM phosphate pH 7, 50 mM NaCl. The text has this:
fluorescence of released 4-methylumbelliferone, Michaelis-Menten fit on 6151 | We also tested the enzymes’ Michaelis–Menten kinetic properties

Substrate in series [1]: Cc1cc(=O)oc2cc(O[C@@H]3O[C@H](CO)[C@@H](O)[C@H](O)[C@H]3O)ccc12
Described as above. Type of series: biochemical, Streptomyces sp. QM-B814. The following applies: 10 nM enzyme, 0.5% DMSO, 10 mM phosphate pH 7, 50 mM NaCl.

As usually defined, the Km is the substrate concentration at which the rate is half of its maximum. `Cc1cc(=O)oc2cc(O[C@@H]3O[C@H](CO)[C@@H](O)[C@H](O)[C@H]3O)ccc12` [4-methylumbelliferyl-β-D-glucopyranoside]: the Km with 6151 is 214 µM.

B1: Bgl3 (Streptomyces sp. QM-B814) (protein)
chain: MVPAAQQTATAPDAALTFPEGFLWGSATASYQIEGAAAEDGRTPSIWDTYARTPGRVRNGDTGDVATDHYHRWREDVALMAELGLGAYRFSLAWPRIQPTGRGPALQKGLDFYRRLADELLAKGIQPVATLYHWDLPQELENAGGWPERATAERFAEYAAIAADALGDRVKTWTTLNEPWCSAFLGYGSGVHAPGRTDPVAALRAAHHLNLGHGLAVQALRDRLPADAQCSVTLNIHHVRPLTDSDADADAVRRIDALANRVFTGPMLQGAYPEDLVKDTAGLTDWSFVRDGDLRLAHQKLDFLGVNYYSPTLVSEADGSGTHNSDGHGRSAHSPWPGADRVAFHQPPGETTAMGWAVDPSGLYELLRRLSSDFPALPLVITENGAAFHDYADPEGNVNDPERIAYVRDHLAAVHRAIKDGSDVRGYFLWSLLDNFEWAHGYSKRFGAVYVDYPTGTRIPKASARWYAEVARTGVLPTA
notes: wild-type; pET-22b, E. coli BL21(DE3), Ni-NTA purified
A word on the kcat: it is the maximal rate divided by the concentration of active sites. For the molecule B1, in series [1], the Km was found to be 76 µM and the turnover number (kcat) was 10.7 s⁻¹.
